From patent US20170101470A1 (PROTHENA BIOSCIENCES, published 2017)

T1: human MCAM domain 3 hFc construct (human, UniProt P43121 244-321)
T1 construct: One of the 'various MCAMhFc domains' loaded on the ForteBio sensors; also called MCAMhFc domain 3
T1 sequence: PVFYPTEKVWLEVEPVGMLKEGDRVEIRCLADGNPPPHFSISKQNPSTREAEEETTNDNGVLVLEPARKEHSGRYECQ

T2: human MCAM-Fc protein (extracellular domain of human MCAM fused to human IgG) (human, UniProt P43121 24-559)
T2 construct: also called hMCAM-Fc; MCAMhFc
T2 chain: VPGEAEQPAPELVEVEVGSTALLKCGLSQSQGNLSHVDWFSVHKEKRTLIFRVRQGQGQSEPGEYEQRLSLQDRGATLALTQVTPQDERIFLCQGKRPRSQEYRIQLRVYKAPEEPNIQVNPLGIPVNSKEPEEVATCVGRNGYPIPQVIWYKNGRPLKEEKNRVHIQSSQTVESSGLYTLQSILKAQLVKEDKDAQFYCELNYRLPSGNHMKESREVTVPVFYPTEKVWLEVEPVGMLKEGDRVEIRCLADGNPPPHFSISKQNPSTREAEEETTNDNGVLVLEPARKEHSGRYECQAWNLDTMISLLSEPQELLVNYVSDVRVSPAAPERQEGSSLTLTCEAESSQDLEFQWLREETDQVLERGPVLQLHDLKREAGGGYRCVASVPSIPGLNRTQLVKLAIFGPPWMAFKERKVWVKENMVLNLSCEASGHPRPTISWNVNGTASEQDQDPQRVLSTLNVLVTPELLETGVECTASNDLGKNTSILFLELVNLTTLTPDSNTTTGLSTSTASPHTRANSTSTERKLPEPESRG

T3: human MCAM expressed on CHO cells (full length human MCAM gene) (human, UniProt P43121 24-646)
T3 construct: also called hMCAM expressing CHO cells; CD146
T3 chain: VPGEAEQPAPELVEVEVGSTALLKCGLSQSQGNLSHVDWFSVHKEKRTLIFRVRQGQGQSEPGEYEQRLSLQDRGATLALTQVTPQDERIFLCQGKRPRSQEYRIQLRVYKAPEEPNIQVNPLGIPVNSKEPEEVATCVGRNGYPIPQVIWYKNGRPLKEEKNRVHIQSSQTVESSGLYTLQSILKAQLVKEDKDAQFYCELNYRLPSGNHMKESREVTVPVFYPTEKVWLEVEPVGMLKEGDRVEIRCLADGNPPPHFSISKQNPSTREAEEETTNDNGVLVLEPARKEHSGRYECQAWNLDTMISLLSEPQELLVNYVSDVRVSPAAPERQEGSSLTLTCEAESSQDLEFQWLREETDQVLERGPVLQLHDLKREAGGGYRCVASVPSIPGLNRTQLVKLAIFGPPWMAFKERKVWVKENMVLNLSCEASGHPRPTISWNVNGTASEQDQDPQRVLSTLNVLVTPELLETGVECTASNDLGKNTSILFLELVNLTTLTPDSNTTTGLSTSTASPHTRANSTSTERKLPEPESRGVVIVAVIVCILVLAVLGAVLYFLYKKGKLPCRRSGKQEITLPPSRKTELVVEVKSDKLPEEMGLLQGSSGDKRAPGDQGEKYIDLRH

T4: human MCAM domain 2 hFc construct (human, UniProt P43121 139-242)
T4 construct: One of the 'various MCAMhFc domains' loaded on the ForteBio sensors; also called MCAMhFc domain 2
T4 sequence: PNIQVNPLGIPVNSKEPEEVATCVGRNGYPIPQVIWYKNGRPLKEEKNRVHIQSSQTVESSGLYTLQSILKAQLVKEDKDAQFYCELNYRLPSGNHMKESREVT

T5: human MCAM domain 1 hFc construct (human, UniProt P43121 19-129)
T5 construct: One of the 'various MCAMhFc domains' loaded on the ForteBio sensors; also called MCAMhFc domain 1
T5 sequence: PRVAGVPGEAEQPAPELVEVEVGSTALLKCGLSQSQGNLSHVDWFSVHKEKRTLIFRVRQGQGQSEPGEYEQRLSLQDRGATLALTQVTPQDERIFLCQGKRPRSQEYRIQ

T6: human MCAM domains 1 and 2 hFc construct (human, UniProt P43121 19-242)
T6 construct: One of the 'various MCAMhFc domains' loaded on the ForteBio sensors
T6 sequence: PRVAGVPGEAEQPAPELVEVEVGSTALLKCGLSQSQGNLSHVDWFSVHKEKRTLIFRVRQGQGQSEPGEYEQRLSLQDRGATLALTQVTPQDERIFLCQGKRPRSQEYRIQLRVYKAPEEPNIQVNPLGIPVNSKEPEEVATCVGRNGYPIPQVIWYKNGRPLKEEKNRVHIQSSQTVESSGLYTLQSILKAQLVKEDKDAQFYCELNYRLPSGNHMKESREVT


Assays:
[1] = target: T1, human MCAM domain 3 hFc construct; test: ForteBio Octet Red, MCAMhFc domains on anti-human IgG Fc sensors, antibody at 5 ug/ml
From the text: (§1) The following protocol was used: ForteBio anti-human IgG Fc biosensors were used to immobilize various MCAMhFc domains including full length MCAMhFc protein on to biosensor surface. […] After loading these samples into a black 96 well plate, the Octet Red was programmed as follows: 60 seconds for baseline #1; 180 seconds for loading various domains; 60 seconds for baseline #2; 180 seconds for association of antibody to domain; and 240 seconds for dissociation of antibody from domain.
(§2) Reagents and Supplies Used: [0358] 1. MCAMhFc final concentration @ 5 ug/ml [0359] […] 3. ForteBio anti-human IgG Fc Capture (AHC) biosensors for kinetics experiments, cat#18-5060 [0361] 4. Block 96 well plate from Greiner Bio-one, cat#655209 [0362] 5. ForteBio Octet Red machine [0363] 6. Fresh tissue culture medium, DMEM with 20% FCS, was used as buffer for dilution

[2] = target: T2, human MCAM-Fc protein (extracellular …); test: summary sentence of Example 3 (ForteBio, MCAMhFc)
From the text: as §1, §2

[3] = target: T3, human MCAM expressed on CHO cells (full …); test: flow cytometry: blocking of recombinant human laminin 411 (20 ug/ml) binding to CHO cells expressing human MCAM
Experimental: The 87 independent mouse fusion clones and 26 independent rat fusion clones described in Example 1 above as being capable of (i) binding to human MCAM, and (ii) blocking the interaction between human MCAM and the α-4 chain of laminin were further characterized as follows. First, IC50 quantitation for the ability of the monoclonal antibody to block the binding of human MCAM to the α-4 chain of laminin was determined as follows. CHO cells expressing human MCAM were incubated with an anti-human MCAM antibody (at various concentrations) for 30 minutes at 4 degrees Celsius. […] Unbound laminin was then washed away, and the laminin bound to the surface of the cells was detected with fluorescently labeled anti-laminin antibodies. After washing, the amount of laminin bound to the surface was detected by flow cytometry, and IC50s were calculated based on the mean fluorescent intensity.
Amino acid and nucleic acid sequences of the heavy and light chains of these antibodies, and their hypervariable regions, are provided in SEQ ID NOs:29-92. […] As such, each of these specific monoclonal antibodies was very capable of binding to human MCAM and inhibiting the interaction of cell-expressed human MCAM with its α-4 laminin binding ligand.

[4] = target: T4, human MCAM domain 2 hFc construct; test: ForteBio Octet Red, MCAMhFc domains on anti-human IgG Fc sensors
From the text: as §1, §2

[5] = target: T5, human MCAM domain 1 hFc construct; test: as above
From the text: as §1, §2

[6] = target: T6, human MCAM domains 1 and 2 hFc construct; test: as above
From the text: as §1, §2

laminin α-4 = laminin α-4 (UniProt Q16363 25-1823); test: FACS on MCAM mutants displayed on mammalian cells
laminin α-4, sequence (Q16363 25-1823): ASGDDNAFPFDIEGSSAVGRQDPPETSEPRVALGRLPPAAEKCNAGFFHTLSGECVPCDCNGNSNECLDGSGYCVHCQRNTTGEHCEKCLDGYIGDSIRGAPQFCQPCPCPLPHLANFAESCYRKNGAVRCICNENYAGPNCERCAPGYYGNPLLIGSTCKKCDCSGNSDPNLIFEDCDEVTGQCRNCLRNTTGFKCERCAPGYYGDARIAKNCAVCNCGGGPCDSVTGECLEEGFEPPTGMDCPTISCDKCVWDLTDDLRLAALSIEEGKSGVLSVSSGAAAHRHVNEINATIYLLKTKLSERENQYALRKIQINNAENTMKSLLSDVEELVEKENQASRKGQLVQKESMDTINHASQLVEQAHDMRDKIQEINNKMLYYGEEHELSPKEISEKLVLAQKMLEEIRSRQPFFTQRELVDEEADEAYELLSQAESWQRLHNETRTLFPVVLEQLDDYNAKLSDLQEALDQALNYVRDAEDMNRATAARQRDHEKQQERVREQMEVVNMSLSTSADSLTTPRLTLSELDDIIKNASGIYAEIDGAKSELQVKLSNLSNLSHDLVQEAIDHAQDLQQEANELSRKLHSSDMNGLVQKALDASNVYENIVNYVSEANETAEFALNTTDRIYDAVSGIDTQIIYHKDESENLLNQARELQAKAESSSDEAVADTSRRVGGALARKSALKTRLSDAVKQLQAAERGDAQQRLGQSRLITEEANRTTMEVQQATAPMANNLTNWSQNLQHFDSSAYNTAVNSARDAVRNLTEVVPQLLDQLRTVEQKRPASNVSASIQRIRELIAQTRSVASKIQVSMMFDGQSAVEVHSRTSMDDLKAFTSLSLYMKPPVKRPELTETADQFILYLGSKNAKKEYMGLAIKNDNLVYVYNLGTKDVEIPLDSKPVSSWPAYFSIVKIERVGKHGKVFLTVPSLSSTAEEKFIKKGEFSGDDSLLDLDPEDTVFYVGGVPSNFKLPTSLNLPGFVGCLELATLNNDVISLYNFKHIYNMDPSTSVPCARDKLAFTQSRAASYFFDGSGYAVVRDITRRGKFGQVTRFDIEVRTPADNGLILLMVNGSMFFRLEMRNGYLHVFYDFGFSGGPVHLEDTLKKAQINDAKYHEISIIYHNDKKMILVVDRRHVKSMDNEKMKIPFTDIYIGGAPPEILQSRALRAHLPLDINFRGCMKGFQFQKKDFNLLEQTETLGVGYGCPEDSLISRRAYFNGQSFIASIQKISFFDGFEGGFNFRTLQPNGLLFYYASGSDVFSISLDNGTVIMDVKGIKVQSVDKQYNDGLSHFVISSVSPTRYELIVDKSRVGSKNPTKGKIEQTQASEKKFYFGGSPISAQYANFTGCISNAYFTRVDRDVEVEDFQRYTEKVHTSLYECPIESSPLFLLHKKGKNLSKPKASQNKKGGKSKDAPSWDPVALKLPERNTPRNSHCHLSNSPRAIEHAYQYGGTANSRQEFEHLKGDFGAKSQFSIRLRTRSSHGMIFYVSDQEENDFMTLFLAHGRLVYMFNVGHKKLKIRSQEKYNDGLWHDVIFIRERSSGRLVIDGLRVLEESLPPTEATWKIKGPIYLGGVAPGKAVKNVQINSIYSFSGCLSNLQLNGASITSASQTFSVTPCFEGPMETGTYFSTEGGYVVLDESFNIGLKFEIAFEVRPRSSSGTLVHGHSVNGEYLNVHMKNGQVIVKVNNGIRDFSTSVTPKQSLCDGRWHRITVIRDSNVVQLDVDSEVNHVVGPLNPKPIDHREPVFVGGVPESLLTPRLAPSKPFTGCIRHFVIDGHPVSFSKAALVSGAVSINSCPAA

binding result [1]	binding result [2]	IC50 [3]	binding result [4]	binding result [5]	binding result [6]	binding result (laminin α-4)	Binder
binds	binds	0.545 µg/mL	no binding (tested: 5 ug/ml)	no binding (tested: 5 ug/ml)	no binding (tested: 5 ug/ml)		mouse anti-human MCAM monoclonal antibody clone 1749.1.3 (antibody, V domains shown, Mouse hybridoma antibody) VH: DVKLVESGGDLVKPGGSLKLSCAASGFTFSSYIMSWVRQTPEKRLEWVATISSGGSSTYYPDSVKGRFTISRDNAKNTLYLQMSSLKSEDTAMYYCTRDDDYDVKVFAYWGQGTLVTVSA VL: DIVMSQSPSSLAVSAGEKVTMNCKSSRSLLNSRIRKNYLAWYQQKPGQSPKLLIYWASTRESGVPDRFTGSGSGTDFTLTISSVQAEDLAVYYCKQSYNLLTFGAGTKLELK
						no binding	human MCAM I141A mutant displayed on mammalian cells (Example 5) (receptor, construct and any tag not described) VPGEAEQPAPELVEVEVGSTALLKCGLSQSQGNLSHVDWFSVHKEKRTLIFRVRQGQGQSEPGEYEQRLSLQDRGATLALTQVTPQDERIFLCQGKRPRSQEYRIQLRVYKAPEEPNAQVNPLGIPVNSKEPEEVATCVGRNGYPIPQVIWYKNGRPLKEEKNRVHIQSSQTVESSGLYTLQSILKAQLVKEDKDAQFYCELNYRLPSGNHMKESREVTVPVFYPTEKVWLEVEPVGMLKEGDRVEIRCLADGNPPPHFSISKQNPSTREAEEETTNDNGVLVLEPARKEHSGRYECQAWNLDTMISLLSEPQELLVNYVSDVRVSPAAPERQEGSSLTLTCEAESSQDLEFQWLREETDQVLERGPVLQLHDLKREAGGGYRCVASVPSIPGLNRTQLVKLAIFGPPWMAFKERKVWVKENMVLNLSCEASGHPRPTISWNVNGTASEQDQDPQRVLSTLNVLVTPELLETGVECTASNDLGKNTSILFLELVNLTTLTPDSNTTTGLSTSTASPHTRANSTSTERKLPEPESRGVVIVAVIVCILVLAVLGAVLYFLYKKGKLPCRRSGKQEITLPPSRKTELVVEVKSDKLPEEMGLLQGSSGDKRAPGDQGEKYIDLRH
